Here are results for one substance from patent publication US20150246959A1.

The assay addresses MART-1 presented by HLA-A*0201 on 624 mel-CIITA cells (human). The assay can be described thus: cell-based or functional assay.

Consider F5 (anti-MART-1) TCR, for which the IFN-gamma (pg/ml); Donor 1; 624-CIITA came to 1480 pg/mL and the IFN-gamma (pg/ml); Donor 2; 624-CIITA was 1440 pg/mL.
